The target in this assay is CBP-UPF1-CH-HD (aa 115-914) (human) (UniProt Q92900). Briefly: MST.

In article doi:10.1101/2024.07.16.603692 one finds Kd data, which are given here for one substance.

For orientation: Kd means a measure of binding affinity in units of concentration. Substance “UPF2(770-1204) (from UniProt Q9HAU5 770-1204) (domain or fragment)” yielded a Kd of 10 nM.
